Data as given in a protein production outcome set (Wang et al. 2014).

Assay: label from the status in PepcDB records

Row | Sequence | protein production
1 | MPNSRLEGELPGGGVVTFDTDLPIAAHADEIADLIKHHQVVVVAGETGSGKTTQLPKICLALGRRQIAHTQPRRIAARSVAERVAEEMGVELGEQVGYQVRFTRRASSDTALTVMTDGVLLAEISHDRDLCAHDTIIIDEAHERSLNIDFLLGYLKQLLPRRPDLKVIITSATIDTARFSAHFDDAPVIEVSGRTYPVEVRYRPLDPSEQIRPDDEDDIDDEDELLHRPSAPSLTSPDDEVVDQVTGICRAVQELCREESGDILVFLAGEQEIRETAEALADLNLSNTEVLPLFARLSAAEQHRVFTPHTGRRIVLATNVAETSLTVPGIRYVIDPGTARISRYSVRTKVQRLPIEPVSQASANQRAGRCGRVAPGICIRLYSQTSFESRPEFTEPEILRTNLAAVILQMAQARLGAITDFPFVEAPDRSRINDGIRLLDELGALKPGHRDASRLTKIGHQLARVPLDPRLGRMLLEGARQGSLAEVLVIVAALSIRDVRERPADKREEADAFHRRFATEANLLQTLQAADNTDNNQVGDWSQVRRQHIHQEAANTAKPGPPARHTPHTRGKISPRPQAGGIDEGGDIMAIHRLWRYLRHQRRQMGSSAFRRMCRAEYINYLRVREWDDLHGQLRQIAKELHLEVNRTSAPTDRVLVALLSGLLSHIGLVQVRQPAKRHGQRPGPQEYLGARGTKFAINPGSLLARKSPELVVAVELVETSRLWARTVAAVQPEWVEEVAGPLIRRSWAVPHWAASTASVVATERGTLFGVPLWADRRVTYGRIDPVASRQIFIRSALVERNWRSDHGFLKHNDRVRDEAADLEERSRQRGLVADDDAIFAFYDRRIPDGIVSGSHFDAWWRRVQDRHQLDLSIDDLVDSGSVDADAFPDHWKVGNLELPVRYVFEPGSGHDGVTVTIPLALLNQVPTAPFSWQVPGLRTELATELIRALPKRIRTQLVPAPDRARAALTWLEDHDADRHAPFTNELGRALRTLTGVIINPDDWNIAAIPAHLRIGFDITDAEGRPVGKKSKKNGKDKLKGSQPAPIARSEDLDALQTDLAPKVSQSLTKAAGQPQIHGAKEWTFDPIPKRVDLSRKGPDAVGYPCLVDEGDSVGTTVLDTPRAQRTSHASGVVKLLVLNLPDPTKWVVTHMDNATKLALATSPYPSVPALLADARHKAVASVAQEKAGDLSGIRDKKTFDDLALVVRQDQADRMARVVRTAGRILSRVVAARQALATVSDPAIHADIVAQIDDLVFENFISATPDPWYDDMPRWIQGVSVRIESLMTNPSRDPRQMAELEPLLADYDALCEEQPAGKLPAEVEEIGFMLEELRVQYFAQKLGTRVSVSPKRIRMAIAKLS | failed
2 | MPPELNWQEIDTVLLDMDGTLLDLEFDSHFWLKQVPETLSQRRGISLEQAHKIIHDEYLAVQHTLNWYCFDYWSERLDLDIYAMTTQAGNRVRLRQDTQPFLASLRERGLQTILLTNAHPHSLAVKIEHTALDQHLDLLLSTHTFGYPKEDQRLWQAVTQHTGLNPARTLFVDDSEKILDAARTFGIRYCLGIENPDSSCADKAFHSHPAINDYRKLLPALELRK | failed
3 | MPPIIKRRVMRKIIIASQNPAKVNAVRSAFSTVFPDQEWEFIGVSVPSEVADQPMSDEETKQGALNRVRNAKQRHPGAEYYVGLEAGIEENKTFAWMIVESDQQRGESRSACLMLPPLVLERLRQAKELGDVMDEVFGTENIKQKGGAIGLLTRHHLTRSTVYHQALILALIPFINPEHYPSA | not failed
4 | MPPQPDAAPPPLPPELAPLLPTDPVTIGPFRVIGRLGSGGMGAVYGALDAEHRCVAVKVIHAEHVRRPEYRELFAREAELVSRIDAECTPRFLGADPNAPEPWLATEFVPGRTLQQHVREFGPLDEAALRAFAAGTAEALAAIHAAGVVHLDVKPGNIMLAPDGPKVLDFGIARAIGDTTDKNVYGTPGWAAPERLDRQPGTPAADMFAWGGLIVFAATGRSPFGTGTSAELLERVRAGDCDLTGVPEELMELVARALSTDPEARPTAVEAFHTVLALDTVAADAIEEPGEDAAAIHRKRLRALLHRVWTGFDAAGHRPELWMALGTAAGGVGVAAGGAAALATQGTAGGGAAAGSGKLVGTASAAGGGASWGAGAGTLTKSATVTAAGTGLSGKAMLTVAAGATAAAVAGGWLVGRAVTDQPLLPFTDPEPSATAALAPSPEEDEKEGQEVRFRNLTLWFPEDWTVHVIEDIEFVGFGPDHEGREIVDDWIAAHPPGNPGCAEVDWNHWEWPAALVECPHIRILGPGGITYGGAVYEPITEEPDAGLFAPSQNPLPCIPGIDAYEADPASFPGQSPLVEELAPVGDRSALYREYLTPCGNPDGRDPELLYYTQRSWFLPESQILIVDEYGIEDIDAILADGEFASRSEED | failed
5 | MPQIQSSHSNHFDFTIDTADRTKLLMSYLVVPTTANFNNVMHGGELLNLLDKVAYVCSTRYCAKGTVTLSVDGVTFKYPIPVGNLLTFLASINYVGNTSCEVGIKVLSEDIKTREITHTNSCYFTMVAVENGKPTPMPKYEPKTEVEIRRYEGALKRKEMRTRGYLKSGKHEGV | failed
